B1: FAM107A (parent)
chain: LQRVLEHRRRNQLIKKKKEELEAK
B2: ZER1 (parent)
chain: KEMARKVIEHCSNFKEENMDTSR

Variants of: B1
Assay: protein stability index of a GFP-peptide fusion (GPS, HEK-293T) (PSI 1-6); higher = more stable
Settings: c terminus: a fixed tail appended
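Note: lentivirally expressed fusions sorted by FACS into six bins by GFP to DsRed ratio, PSI derived from sequencing read proportions per bin multiplied by bin number.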

Protein stability index of substitutions, site by site:
L5: H 5.17, I 3.2, Y 2.98, E 4.38, A 4.08, S 4.46, W 3.71, R 4.04, F 3.77, N 4.27, G 4.73, M 4.19, T 4.38, Q 3.94, C 3.69, P 4.69
R3: L 2.39, E 5.32, D 4.5, T 3.8, A 3.21, F 3.04, V 3.6, S 4.04, N 3.79, Y 3.39, C 3.13, W 2.27, Q 3.92, K 3.69, H 4.12, I 2.09
R9: F 2.49, T 4.07, C 3.23, M 2.77, V 2.16, I 2.72, E 3.97, G 4.14, A 4.4, H 3.65, P 3.81, Y 1.84, K 3.76, L 1.72, S 4.03, D 3.96
K17: L 3.5, G 4.27, C 2.8, I 2.58, H 3.52, Y 3.37, W 3.74, A 3.44, Q 3.8, D 4.78, E 4.31, V 3.25, F 3.73, T 4.38, M 3.16
N11: I 2.97, M 3.4, K 3.62, W 1.93, L 2.65, C 2.83, F 2.72, H 3.23, D 3.56, A 2.24, E 4.16, Q 3.09, V 3.25, P 3.24, G 3.57, T 3.38, S 3.6, Y 2.97
R10: Y 4.04, C 3.14, N 3.55, K 3.29, F 3.21, G 4.15, A 4.01, E 3.75, D 4.77, M 2.85, P 4.23, L 3.66, T 4.57, I 3.3, W 3.94, H 3.2, V 3.95, S 3.95
Q12: V 3.45, A 4.05, T 3.66, S 3.11, L 2.2, M 3.45, H 3.5, F 2.66, Y 2.8, D 3.74, G 2.85, E 4.11, I 3.74, R 4.07, P 4.12, N 3.1, W 1.5, K 4
V4: G 3.52, R 4.14, N 4.87, P 4.66, M 3.1, L 2.87, K 4.39, E 4.49, H 3.68, T 3.92, A 4.09, S 3.69, Q 4.61, W 2.09, F 2.05
L21: F 2.71, D 4.01, A 3.88, C 3.3, G 3.63
I14: H 3.44, P 3.31, Q 3.62, L 3.24, D 4.39, F 4.1, N 3.74, T 3.71, V 4.25, C 3.42, E 4.18, M 4.54, Y 3.28, S 3.92, R 3.66
E20: M 3.5, I 3.35, S 3.99, N 3.35, Q 2.12, A 3.12, D 3.71, G 2.42, V 3.58, W 2.29, T 3.45, F 2.52, P 3.74, K 3.34, Y 2.94, H 2.83, L 3.03
K15: A 4.16, C 3.52, G 4.49, M 3.98, I 3.24, D 3.61, L 3.84, N 4, T 3.87, Q 3.7, E 4.74, S 3.86, Y 3.51, R 3.34, H 4.23, P 4.18
K16: I 3.28, Y 2.41, Q 3.82, T 3.85, C 3.26, N 4.07, H 3, W 3.58, E 3.94, A 4.15, G 4.52, M 3.09, R 3.04, S 4, D 4.44
K18: C 3.37, L 2.81, Q 3.04, E 3.89, H 3.67, N 3.41, T 3.93, V 3.21, A 4.54, Y 3.11, P 4.37, M 3.57, D 4.4, F 4.52, S 3.62, W 3.1, I 2.74
E19: Y 3.23, H 2.87, V 2.7, D 4.2, C 2.46, N 2.98, M 3.19, R 2.56, S 3.13, Q 2.56, I 3.12, K 2.97, F 2.22, T 3.19, P 3.41, L 1.86
R8: I 2.42, V 3.05, E 4.32, N 3.53, L 2.15, W 1.68, Q 3.38, G 3.39, H 2.89, K 3.82, F 2.1, P 3.45, D 4.61, M 3.38, T 3.87, A 3.43
L1: G 4.37, P 4.66, T 4.72, W 2.56, K 4.85, F 3.13, M 3.64, I 2.73, Q 5.11, A 4.61, D 5.36, E 4.79, Y 3.02
L13: T 3.32, I 3.76, N 3.6, F 3.83, Y 3.37, A 3.51, P 4.07, C 3.3, M 3.83, Q 3.73, V 3.08, E 4.54, D 3.29, H 4.18, S 3.72, G 4.31, K 3.43
H7: K 1.82, D 4.04, L 3.34, Q 3.75, N 3.67, A 3.67, Y 1.69, I 3.06, R 3.19, G 4.29, M 3.15, F 3.1, P 3.4, C 3.37, E 3.9
E6: L 2.79, V 3.68, G 3.98, Y 3, K 4.04, A 3.07, M 3.32, I 2.73, H 3.81, F 3.63, P 3.96, W 3.02, T 3.02, R 3.81, D 3.61, C 3.12, S 4.13
Q2: G 4.38, C 2.98, W 2.06, V 2.41, L 1.81, M 2.78, Y 2.13, D 3.25, F 2.16, N 4.13, K 4.01, E 3.89, I 1.8, P 3.98, R 3.67, T 4.02, A 2.93

Variants of: B2
Assay: as above
Settings: c terminus: native

Protein stability index, by site and new letter:
R5: E 4.72
N18: S 3.7
E17: D 3.63
M19: P 3.58
M3: L 3.52
T21: W 2.3
